The results in this text go back to patent US20240117018A1.

Common to all, as to assay: cell-based or functional assay
In test [1] the target is HIV-1 Env pseudovirus Du172.17 (HIV-1).
The target in test [2] is HIV-1 Env pseudovirus QH0692.42 (HIV-1).
For test [3], the target named is HIV-1 Env pseudovirus ZM249M.PL1 (HIV-1).
Test [4] has as its target HIV-1 Env pseudovirus CNE21 (HIV-1).
The target of test [5] is HIV-1 Env pseudovirus TRJO4551.58 (HIV-1).
Test [6] addresses HIV-1 Env pseudovirus ZM247v1(Rev-) (HIV-1).
The target of test [7] is HIV-1 Env pseudovirus CNE53 (HIV-1).
In test [8] the target is HIV-1 Env pseudovirus Q259.d2.17 (HIV-1).
Test [9] concerns the target HIV-1 Env pseudovirus WEAU_d15_410_787 (HIV-1).
Test [10] deals with HIV-1 Env pseudovirus WITO4160.33 (HIV-1).
Test [11] deals with HIV-1 Env pseudovirus CNE52 (HIV-1).
The target of test [12] is HIV-1 Env pseudovirus Ce2060_G9 (HIV-1).
The target in test [13] is HIV-1 Env of pseudovirus Du156.12 (HIV-1).
Test [14] concerns the target HIV-1 Env of pseudovirus Q769.d22 (HIV-1).
For test [15], the target named is HIV-1 Env of pseudovirus CNE30 (HIV-1).
Test [16] has as its target HIV-1 Env of pseudovirus 1012_11_TC21_3257 (HIV-1).
For test [17], the target named is HIV-1 Env of pseudovirus REJO4541.67 (HIV-1).
In test [18] the target is HIV-1 Env of pseudovirus Ce1176_A3 (HIV-1).
The target in test [19] is HIV-1 Env of pseudovirus Ce704809221_1B3 (HIV-1).
In test [20] the target is HIV-1 Env pseudovirus 211-9 (HIV-1).
In test [21] the target is HIV-1 Env pseudovirus 620345.c01 (HIV-1).
Test [22] addresses HIV-1 Env pseudovirus 6540.v4.c1 (HIV-1).
The target of test [23] is HIV-1 Env pseudovirus X1254_c3 (HIV-1).
Test [24] addresses HIV-1 Env pseudovirus C1080.c03 (HIV-1).
Test [25] addresses HIV-1 Env pseudovirus 3016.v5.c45 (HIV-1).

As usually defined, the IC50 is the concentration that inhibits the measured activity by half. Low readings indicate greater potency, high ones weaker potency. By IC80 is commonly meant the concentration needed for an effect of 80%. For the substance N49P11 (antibody), the IC50 amounted to 5.65 µg/mL in test [1]; 0.55 µg/mL in test [2]; 3.64 µg/mL in test [3]; 7.4 µg/mL in test [4]; 0.183 µg/mL in test [5]; 7.48 µg/mL in [6]. Moreover, the IC50 is 0.43 µg/mL in [7]; 8.42 µg/mL in [8]; 1.7 µg/mL in test [9]; 4.86 µg/mL in test [10]; 0.06 µg/mL in test [11]; 3.33 µg/mL in [12]. The 80% effect concentration (IC80) is 17.9 µg/mL in test [1]; 2.65 µg/mL in test [2]; 17.4 µg/mL in test [3]; 21.9 µg/mL in test [4]; 0.656 µg/mL in test [5]; 21.5 µg/mL in test [6]. Besides, the IC80 in [7] is 2.88 µg/mL; in test [8], 21.4 µg/mL; in test [9], 6.02 µg/mL; in test [10], 13.2 µg/mL; in test [11], 0.307 µg/mL; in [12], 13.2 µg/mL. In addition, the MPI in test [1], in test [2], in test [3], in test [4], in test [5] and in test [6] was 100 each time. The MPI in test [7], in test [8], in [9], in test [10], in [11] and in test [12] was 100 each time.
Turning to PGDM1400 (antibody), the neutralization IC50 in test [13] is 2 ng/mL; in [14], 0.002 µg/mL; in test [15], above 50 µg/mL; in test [16], 0.049 µg/mL; in [17], 0.028 µg/mL; in test [18], 587 ng/mL. Besides, the neutralization IC50 in [19] is 0.28 µg/mL. Further, the neutralization IC80 in [13] was 0.008 µg/mL; in test [14] it was 0.018 µg/mL; in [15], above 50 µg/mL; in test [16], 0.23 µg/mL; in [17], 0.992 µg/mL; in test [18] it was 11.6 µg/mL. The neutralization IC80 in test [19] was 1.1 µg/mL.
PGT145 (antibody): the neutralization IC50 in test [13] was 1 ng/mL; in test [14], 0.26 µg/mL; in test [15] it was above 50 µg/mL; in [16], 0.009 µg/mL; in test [17], below 0.001 µg/mL; in test [18], above 50000 ng/mL. In test [19], this substance returned a neutralization IC50 of 0.102 µg/mL. Also, the neutralization IC80 in test [13] is 0.018 µg/mL; in test [14], 25.5 µg/mL; in test [15], above 50 µg/mL; in test [16], 0.025 µg/mL; in test [17], 0.001 µg/mL; in [18], above 50 µg/mL. The substance further yielded a neutralization IC80 in test [19] of 0.71 µg/mL.
As to PGT151 (antibody), the neutralization IC50 in test [13] was 5 ng/mL; in test [14], above 50 µg/mL; in test [15], above 50 µg/mL; in test [16] it was above 50 µg/mL; in [17], 0.018 µg/mL; in test [18] it was 6 ng/mL. Further, in test [19], the neutralization IC50 is above 50 µg/mL. Moreover, the neutralization IC80 in [13] is 0.023 µg/mL; in test [14], above 50 µg/mL; in [15], above 50 µg/mL; in test [16], above 50 µg/mL; in [17] it was 0.119 µg/mL; in test [18], 0.018 µg/mL. Besides, in [19], the neutralization IC80 is above 50 µg/mL.
Consider NIH 45-46 (antibody), for which the IC50 came out at 0.01 µg/mL in test [13]; 0.01 µg/mL in test [14]; 0.34 µg/mL in test [15]; 0.01 µg/mL in test [16]; 0.003 µg/mL in [17]; 1.29 µg/mL in [18]. Also, the IC50 in test [19] is 0.15 µg/mL. The IC80 in [13] came to 0.05 µg/mL; in [14], 0.04 µg/mL; in test [15] it was 1.48 µg/mL; in [16], 0.04 µg/mL; in test [17], 0.01 µg/mL; in test [18], 5.55 µg/mL. Besides, the IC80 in test [19] is 0.88 µg/mL.
For N49P7 (antibody), the IC50 was 0.032 µg/mL in test [13]; 0.025 µg/mL in test [14]; 0.18 µg/mL in test [15]; 0.046 µg/mL in [16]; 0.015 µg/mL in [17]; 0.204 µg/mL in test [18]. In test [19], this substance returned an IC50 of 0.141 µg/mL. Also, the IC80 turned out to be 0.086 µg/mL in [13]; 0.111 µg/mL in test [14]; 0.609 µg/mL in test [15]; 0.125 µg/mL in test [16]; 0.049 µg/mL in [17]; 0.589 µg/mL in test [18]. Besides, the concentration for an effect of 80% (IC80) in test [19] worked out at 0.932 µg/mL. Besides, the MPI in test [13], in test [14], in test [15], in [16], in test [17] and in test [18] was 100 in each case. In addition, the MPI in test [19] stood at 100.
Consider VRC01 (antibody), for which the IC50 (Titer in TZM.bl cells) was 14.3 µg/mL in [20]; above 50 µg/mL in test [1]; 1.5 µg/mL in test [2]; 0.05 µg/mL in test [3]; above 50 µg/mL in test [21]; 0.08 µg/mL in test [5]. Also, the IC50 (Titer in TZM.bl cells) in test [6] is 0.35 µg/mL; in test [22] it was above 50 µg/mL; in test [23] it was 0.07 µg/mL; in test [24], 3.4 µg/mL; in test [8], 0.17 µg/mL; in test [25], 0.16 µg/mL. The IC50 (Titer in TZM.bl cells) in test [9] stood at 0.12 µg/mL; in test [10] it was 0.15 µg/mL; in test [12], 0.29 µg/mL. Also, the IC80 (Titer in TZM.bl cells) in test [20] was above 50 µg/mL; in test [1] it was above 50 µg/mL; in [2], 4.8 µg/mL; in [3], 0.23 µg/mL; in test [21] it was above 50 µg/mL; in test [5], 0.21 µg/mL. The IC80 (Titer in TZM.bl cells) is 1.29 µg/mL in test [6]; above 50 µg/mL in [22]; 0.19 µg/mL in [23]; 14.4 µg/mL in test [24]; 0.54 µg/mL in [8]; 0.42 µg/mL in test [25]. Besides, the values for the IC80 (Titer in TZM.bl cells) in test [9], in [10] and in test [12] were 0.26 µg/mL, 0.41 µg/mL and 1.48 µg/mL, respectively.
On to PGT128 (antibody), for which the neutralization IC50 was 17 ng/mL in [13]; above 50 µg/mL in test [14]; 2.06 µg/mL in [15]; 0.011 µg/mL in test [16]; above 50 µg/mL in test [17]; 9 ng/mL in [18]. This substance displayed a neutralization IC50 in test [19] of 0.026 µg/mL. Also, the neutralization IC80 was 0.046 µg/mL in [13]; above 50 µg/mL in test [14]; 12.6 µg/mL in [15]; 0.033 µg/mL in test [16]; above 50 µg/mL in test [17]; 0.026 µg/mL in test [18]. For the same substance, the neutralization IC80 in test [19] was 0.072 µg/mL.
With N49P7.1 (antibody), the IC50 was determined as 0.045 µg/mL in test [13]; 0.044 µg/mL in [14]; 0.307 µg/mL in test [15]; 0.063 µg/mL in test [16]; 0.022 µg/mL in [17]; 0.279 µg/mL in test [18]. This substance also gave an IC50 in test [19] of 0.211 µg/mL. For the same substance, the IC80 in [13] was 0.131 µg/mL; in test [14], 0.163 µg/mL; in test [15], 1.01 µg/mL; in test [16], 0.176 µg/mL; in test [17] it was 0.088 µg/mL; in test [18], 1.01 µg/mL. The substance further came in with an IC80 in test [19] of 1.35 µg/mL. Also, the MPI in test [13], in test [14], in test [15], in test [16], in test [17] and in [18] was 100 in each case. Also, the MPI in test [19] came to 100.
